{"source": "the DeepSol protein solubility set"}
{"experiment": "soluble on expression in E. coli; label from the status in PepcDB or PDB records"}
{"sequence": "MGSDKIHHHHHHMSNNKCITVIGGVYIERYAWPHWDELYGSGGRALSVLQSLGCATKLYSCLNKDSANILQARAGIYKTSFEICSSLKESYRPIKFHYLHGLSTPQISAITTEFAQQNEIIEDNILVFGMLEGNPTISGNKVVYDPQNPISPKDFSENGSTANELAIVLNTNEAYKLIKNRNLSLDEIAYELIKNKAKVVIIKQGVRGVNIYQKLNDRYIKKDSVPCYFTKNVWKIGSGDCFSAHFAYQWIYEGKTPTEAAELASKATAYYCETRGYPSFEEFTNWKNRVQPITHRHSEKKVTVYLAGPFFTLSQIWLINETRRLLSEMGLIVFSPYHEIGTGDAIMVVPKDIDGINNSDIIFAIFDGKDSGTIFEIGYATAKNKPVIVYNENEKSEDLKMMEGTDCIVIKDYVSAIYRTLWESQKL", "soluble on expression in E. coli": "not soluble"}
{"sequence": "DPEDPAEDIIQTAGTIAHRGADRQDGGWGSGGPKFPQNGRLHALLRAYADGGQEDYLNVVEETLDVMADRGLYDHVGGGFHRYATDQQWAVPHFEKMLYDNAEIPRAFLAGYQAIGSERYASVVRETFEFVQRELQHPDGGFFSTLDAESAPHSESRSDSEQSSGESPRDDPDGETEEGLFYVWTPEQVHDAVDDETDADIFCDYYGVTEQGNFEGATVLAVRKPVPVLAEEYERSEDEITASLQRALNETFEARKDRPRPARDEKVLAGWNGLMIRALAEGAIVLDDQYADVAADALSFVREHLWDADAGRLNRRYKDDDVAIDGYLEDYAFLGRGALTLFEATGDVEHLAFAMDLGQAITEAFWDDEQGTLFFTPTGGESLVARPQELTD", "soluble on expression in E. coli": "not soluble"}
{"sequence": "MSLTGLFEPIAPQAPLAERLRPKSLDEVVGQRHLLGEGKPLRLAFTSGKLPSMILWGPPGVGKTTLARLIANTADAEFIPLSAVLAGIKDIREAVERAEHTLQQSGRRTILFVDEVHRFNKGQQDAFLPFVESGLITFIGATTENPSFEVNSALLSRAQVFVLNALSEDELKQLLERGKQEMQLDIPLTPEVVEQVLGYADGDARRLLNFVEGLFNAALTAGVTKIDAEFLQSTMASKLRRFDKGGEAFYDQISALHKSVRGSNPDAALYWFLRMLDGGADPLYLGRRIVRMAVEDIGIADPRAQTMALEACQIYERLGSPEGELALSNAVIYLAVAAKSNAAYMAYNQAKAFVASDKSRPVPLHLRNAPTKLMKDLNYGKEYRYAHNEPGAYAAGEDYFPDGLEAIQFYVPTQRGLEGKISEKMAHLRALDEEARSKEGHHHHHH", "soluble on expression in E. coli": "soluble"}
{"sequence": "MVTFKPKVLHFVNATNLNQVDGTGTIVNEWIKAAGGQNALKQKGNMISVTTETLAKSDPDVIIVGSATTAEARAALKKNAVLSKLTAVKKNRVYGNPQGTFPWDRYSAEEALQVLWAAKKLHPDQFQLEHHHHHH", "soluble on expression in E. coli": "not soluble"}
{"sequence": "MKTSPRSNRLHIALFGKRNSGKSSLINALTNQNAALVSDIAGTTTDPVYQPMEIHGIGPCVFIDTAGFDDEGELGSLRIERTLQAADKADIALMVCCDTELSEEQRWIELLKERNIPYLLVLNKADLLEKPDEVADKLEQQTGQHPLIVSAKEKTGIDSIRQSILHRLPELNEQPDIVGDLANEGDVVLLVMPQDIQAPKGRLILPQVQTLRELLDKKCITLSCTTDQLDNALKALSVPPSLIITDSQVFRTVYEKKPPQSRLTSFSVLFARYKGDIDYYTEGAYIIDQLTENSRVLIAEACTHAPLSEDIGRVKLPRMLRKRIGEKLHIDIVSGNDFPKDLNCYDLIIHCGACMFNRKHVLNRIVKAKAQGVPMTNYGIVIAYINGIPFH", "soluble on expression in E. coli": "soluble"}
{"sequence": "MGSDKIHHHHHHMRNRREVSKLLSERVLLLDGAYGTEFMKYGYDDLPEELNIKAPDVVLKVHRSYIESGSDVILTNTFGATRMKLRKHGLEDKLDPIVRNAVRIARRAAGEKLVFGDIGPTGELPYPLGSTLFEEFYENFRETVEIMVEEGVDGIIFETFSDILELKAAVLAAREVSRDVFLIAHMTFDEKGRSLTGTDPANFAITFDELDIDALGINCSLGPEEILPIFQELSQYTDKFLVVEPNAGKPIVENGKTVYPLKPHDFAVHIDSYYELGVNIFGGCCGTTPEHVKLFRKVLGNRKPLQRKKKRIFAVSSPSKLVTFDHFVVIGERINPAGRKKLWAEMQKGNEEIVIKEAKTQVEKGAEVLDVNFGIESQIDVRYVEKIVQTLPYVSNVPLSLDIQNVDLTERALRAYPGRSLFNSAKVDEEELEMKINLLKKYGGTLIVLLMGKDVPKSFEERKEYFEKALKILERHDFSDRVIFDPGVLPLGAEGKPVEVLKTIEFISSKGFNTTVGLSNLSFGLPDRSYYNTAFLVLGISKGLSSAIMNPLDETLMKTLNATLVILEKKELPRAEVKEEKLVEIILSGNRSELEKLVEDFLKEKDPLSVIEEHLRPAMERIGELYDKGKIFLPQLILAAQTVKPVFDKLTSMLPSDSQGETFVIATVKGDVHDIGKNIVASVIRSSGYRVVDLGKDVDTSEIVEAVEKERPVALGLSAMMTTTVGRIKEVVEKLKEKNLKIPVIVGGASLNEKLAKELGADYYAKNASEAVKILKSLGR", "soluble on expression in E. coli": "not soluble"}
{"sequence": "MKLYQHIETLWDYMQLKQDLKPADCLFVMCSNDVRVAEHAAALYHQKLAPLIVFSGGEGRFTDGLFEKSEAETFADIARLAGVPSDAILVETRSTNSGENVRFTEQLLKEKGIQCESIILVQKPFMERRAIATFEKQWQSPYSQVQVSSTAHPFFEYINEDMPLMMVLEALMEDFSRVKSYPEKGFQTKQDIPNQVDSSYQVLLERFGFDLVLEHHHHHH", "soluble on expression in E. coli": "not soluble"}
{"sequence": "MAREGCLALNVECRGRRVKFEARMETLPNGRQILVDRVVFPDSVAVLPLVEKDGEWHVVLVRQFRPSIGKWTLEAPAGTLKEGETPEAAAARELEEEAGLKAKALVRVGGGHVSPGYSTEYIHLFLAYSLEKGEMSPEEHEVIEGVVEMRLSEALESIESGVIEDLKTIALVMAAASRVHQLEAGGGV", "soluble on expression in E. coli": "soluble"}
{"sequence": "MVFKPHRINCRDFTFKIELKEKKILRGRAMLDKIDRKLLALLQQDCTLSLQALAEAVNLTTTPCWKRLKRLEDDGILIGKVALLDPEKIGLGLTAFVLIKTQHHSSEWYCRFVTVVTEMPEVLGVWRMAGEYDYLMRVQVADMKRYDEFYKRLVNSVPGLSDVTSSFAMEQIKYTTSLPIE", "soluble on expression in E. coli": "not soluble"}
{"sequence": "MSLRHDFVFSGVIMLELNAKTTALVVIDLQEGILPFAGGPHTADEVVNRAGKLAAKFRASGQPVFLVRVGWSADYAEALKQPVDAPSPAKVLPENWWQHPAALGATDSDIEIIKRQWGAFYGTDLELQLRRRGIDTIVLCGISTNIGVESTARNAWELGFNLVIAEDACSAASAEQHNNSINHIYPRIARVRSVEEILNALEGGSHHHHHH", "soluble on expression in E. coli": "soluble"}
{"sequence": "MKPTNKAQDDDAVFALSTEVNHKLDLHQSSAEALRLAGVYTRQSCVLDLYHGYRSDDEDTEPDEEDGRLQTVREYHENGMLKLMRTFVRRLRRDATDPTAESSYYDRVVEEKHYDPSGICRVDMHFALGQPYLYRKHYYPNNRLKSEKVFFVEDEETMRARKVGHWRTYYENGNIQSEIIYNKDGVRCGFCKRYAIDGAIEWVKDYTREQEERLQAFNAKRGNLDLTVTDAARVLGLEGDWCSHVVNRTFRSKCAPLHPDWRRTAGDKAGETWEEEQRTEAFIRLSRAREVLLKFLETHPRECSCERGGA", "soluble on expression in E. coli": "not soluble"}
{"sequence": "YGNMTEDHVMHLLQNADPLKVYPPLKGSFPENLRHLKNTMETIDWKVFESWMHHWLLFEMSRHSLEQKPTDAPPK", "soluble on expression in E. coli": "soluble"}
{"sequence": "LQEVGSTFNIEVSILKDQATIMIDTTGSSLFKRGYRVQKGGAPIKENMAAAILALSNWFPDKPLVDPTCGSGTFCIEAAMIGMNIAPGFNRSFAFEEWSWVDKDMVQQVRDDAEQEANYEIELDISGFDIDGRMIEIAKSNAEEAGLSDVITFKQMRLQDFRTDKVNGVVISNPPYGERLLDDKAVDILYNEMGQTFAPLKTWSKFILTSDELFELKYGQKADKKRKLYNGTLKVDLYQFYGERVKRHLI", "soluble on expression in E. coli": "not soluble"}
{"sequence": "MTPAIDAHVRLDTHPTHPSAVQAHLTGTQARVASMALEAAGWSAAATGVLVLARIDHEEPYWAADAAQHLTAAGITVEITPRLQEAIDEEWTWPNYPMTWCTRSEIREVSNQAQKIHDDIRNGHLLIHAHAHDGHTTVAVGTYLHPGGKSVYLHGEDHLRQVADTFDSPAEALVAFEKVHAAEMRPGPAPLTDTERAAIAARSVFDATTAKPEPPRREPEAVPVYLADAGDHDALLDSFLDTHGEFEKWRTWSDETTHAIHESQTLRIERVHETQARETAWTVAAYETPVSDRMWHLTATDATPAPVLLNLLNHLADGDGWDTVIGVPVGEKTVTTATQPLTEAGWKHTLTGHGIRWTSPDGQASVRFDPLTAQAPQNPATWTIWAGPGPDRPTWAITASSHTPSSLLADLSESLAHETGTRQPRPGREHRTRLAASAPAIPAVTSDRPASRSRLEHHHHHH", "soluble on expression in E. coli": "soluble"}
{"sequence": "SGEIKVSPDYNWFRSTVPLKKIIVDDDDSKIWSLYDAGPRSIRCPLIFLPPVSGTADVFFQQILALTGWGYRVIALQYPVYWDHLEFCDGFRKLLDHLQLDKVHLFGASLGGFLAQKFAEYTHKSPRVHSLILCNAFSDTSIFNQTWTANSFWLMPAFMLKKIVLGNFSSGPVDPMMADAIDFMVDRLESLGQSELASRLTLNCQNSYVEPHKIRDIPVTIMDIHLLQFHGTKYAAIDPSVVSAEELDVQKGQLDLSQEEP", "soluble on expression in E. coli": "soluble"}
{"sequence": "MGSDKIHHHHHHMQPTYLPWMGYFDLIDIADKFVFLDNVQLERSGWQVRNRIRSSQGELMLRVAIATPKRFDETLIHQTQFVTGHPWRKKHLKSIQMNYQKAPYFAQVYPLLESLYQKDETSLSQFNISVINALCTFMGINTPRMLASELVDIEGIKDARLTSICKHLDADQYLSPLGAMAYIEQESSGGDLGENGIDVFYHQFVHPQYTQVYDGFISHLSIIDALFNLGPQNTVTLIRQFRQAPINYTSLPR", "soluble on expression in E. coli": "not soluble"}
{"sequence": "MSLQHNELKTPYFMINEDKLIANLEKAKQLKEISGVKLVLALKCFSTWGVFDIIKPYLDGTTSSGPFEVKLGYETFGGETHAYSVGYSEDDVREVADICDKMIFNSQSQLAAYRHIVEGKASIGLRLNPGVSYAGQDLANPARKFSRLGVQADHIKPEVFEGIDGVMFHMNCENKDVDAFIGLLDAISEQFGEYLNKLDWVSMGGGVFFTWPGYDIEKLGLALKAFSEKHGVQMYLEPGEAIITKTTDLVVTVVDIVENVKKTAIVDSATEAHRLDTLIYNEPASILEASDNGEHEYVIGSCSCLAGDQFCVANFDQPLEIGQRLHILDSAGYTMVKLNWFNGLRMPSVYCERSSGEIQKLNEFDYSDFKRSLSEGHHHHHH", "soluble on expression in E. coli": "not soluble"}
{"sequence": "GMSDTVLTGLLDTVWQQFGRGTKDRHHPARHPTLATIGTDGPDLRTLVLRAASHAEATLEFHTDAASPKVAHIRRDARVAIHIWIPKASLQVRAKAIAKILPGDPNLFAQLPEAARMNYQGPVPGTPLPAEPDATPNRFTRLICHLSEIDVLHLTTPHQRAVYTAPDWRGIWVSP", "soluble on expression in E. coli": "soluble"}
{"sequence": "MAGEILVIGGGISGLTAAIEAAETGYDVILLEKNPYLGGRVSQLNKYFPKLCPPFCGLEILFKRMKSTPKLKYFTNAEVQEISGESGNFTVKVKLKPRYVNENCTACGACKEVCPIEAPDEYNFGLKKKKAIDLPNIMAMPFQYYIDDKYCNKCGECVSACKYNAIDLNEEEREMTLNVSSIIVATGWKPYDATKLDNLGYGKYKNVITNMEMERLASPNGPTGGVIQTMDGKPIETIAFVQCAGSRDENHLPYCSAICCLASLKQATYVREQYPDAKIYIFYIDIRAFGRYEDFFAKVKADEKIELIKGKVAKVEEVDGKLVVTAEDTLTGVKSKKEVDMVVLATGMQPAIEPIPGLELDEYGFVKPKPGIIPVGVAAMPMEVASANETATAAALKAIQLARRLEHHHHHH", "soluble on expression in E. coli": "soluble"}
